Test in all cases: flow cytometry, R4A-tetramer staining of splenocytes
On the technique in general: Flow cytometry measures light scatter and fluorescence of single cells or particles in a stream.

Assay [1] concerns the target splenocytes of BALB/c mice immunized with adjuvant alone (mouse).
Assay [2] addresses peptide-reactive B cells (surface immunoglobulin) in splenocytes of BALB/c mice immunized with MAP-peptide (R4A peptide on a branched polylysine backbone) (mouse).
Assay [3] addresses splenocytes of BALB/c mice immunized with MAP-core (mouse).

No end group written: not given here. *: point of attachment. Biotin = O=C1N[C@H]2[C@H](CS[C@H]2CCCCC(=O)*)N1 Where only a bound is given, the exact number is not on record here.

B1: R4A-tetramer (tetrameric fluorochrome-labeled form of the R4A peptide) (peptide, part only; not given: labeled streptavidin, not shown: large carriers)
peptide: Biotin-DWEYSLWLSN
modifications: also: tetramer with fluorochrome-labeled streptavidin/neutravidin
In the case of B1, the frequency of tetramer-binding cells (percent of the gated population) (% of the gated population) in assay [1] and in assay [3] was below 0.05 each time. The frequency of cells staining (percent of gated cells) (% of gated cells) in assay [2] stood at 1.

For the origin of these results see patent US20050287607A1.
